PMC4073888

Target: T1, 6xHis-NELF-E-mOrange (Drosophila, UniProt P92204 1-280)
T1 sequence: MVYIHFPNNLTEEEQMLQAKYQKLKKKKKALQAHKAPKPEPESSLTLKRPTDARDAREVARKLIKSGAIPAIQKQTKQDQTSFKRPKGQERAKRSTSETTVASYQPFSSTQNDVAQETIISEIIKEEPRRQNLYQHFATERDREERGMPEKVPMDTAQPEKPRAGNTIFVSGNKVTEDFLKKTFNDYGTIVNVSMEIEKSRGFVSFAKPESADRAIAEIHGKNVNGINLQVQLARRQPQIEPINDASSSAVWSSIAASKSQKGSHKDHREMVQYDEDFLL
Assay: HiTS-RAP fluorescence

B1: NELFapt A39U_U61A (structured_RNA)
RNA: GGGAAUGGAUCCACAUCUACGAAUUCCCAACGACUGCCGAGCGAGAUUACGCUUGAGCGCCCCUCUGAGGAUGCCCACGGGCGAUAGGGGCACGGCUUCACUGCAGACUUGACGAAGCUU
Question: Does B1 bind?
Answer: binds
